Assay results published in patent publication US20210317225A1 (Genmab, published 2021).

B1: CD40-001-FEALxCD137-001-FEAR (bispecific antibody, human IgG1, kappa)
heavy 1: EVQLQQSGPDLVKPGASVKISCKTSGYTFTEYIMHWVKQSHGKSLEWIGGIIPNNGGTSYNQKFKDKATMTVDKSSSTGYMELRSLTSEDSAVYYCTRREVYGRNYYALDYWGQGTLVTVSSASTKGPSVFPLAPSSKSTSGGTAALGCLVKDYFPEPVTVSWNSGALTSGVHTFPAVLQSSGLYSLSSVVTVPSSSLGTQTYICNVNHKPSNTKVDKRVEPKSCDKTHTCPPCPAPEFEGGPSVFLFPPKPKDTLMISRTPEVTCVVVAVSHEDPEVKFNWYVDGVEVHNAKTKPREEQYNSTYRVVSVLTVLHQDWLNGKEYKCKVSNKALPAPIEKTISKAKGQPREPQVYTLPPSREEMTKNQVSLTCLVKGFYPSDIAVEWESNGQPENNYKTTPPVLDSDGSFLLYSKLTVDKSRWQQGNVFSCSVMHEALHNHYTQKSLSLSPGK
light 1: DIQMTQTTSSLSASLGDRVTITCSASQGINNYLNWYQQKPDGTVKLLIYYTSSLHSGVPSRFSGSGSGTDYSLTISNLEPEDIATYYCQQYSNLPYTFGGGTKLEIKRTVAAPSVFIFPPSDEQLKSGTASVVCLLNNFYPREAKVQWKVDNALQSGNSQESVTEQDSKDSTYSLSSTLTLSKADYEKHKVYACEVTHQGLSSPVTKSFNRGEC
heavy 2: QSVEESGGRLVTPGTPLTLTCTVSGFSLSSYAVSWVRQAPGKGLEWIGVIWNNGATHYATWAKGRFTISKASTTVDLKVTSPTTEDTATYFCARSANDAWSTYSDLWGQGTLVTVSSASTKGPSVFPLAPSSKSTSGGTAALGCLVKDYFPEPVTVSWNSGALTSGVHTFPAVLQSSGLYSLSSVVTVPSSSLGTQTYICNVNHKPSNTKVDKRVEPKSCDKTHTCPPCPAPEFEGGPSVFLFPPKPKDTLMISRTPEVTCVVVAVSHEDPEVKFNWYVDGVEVHNAKTKPREEQYNSTYRVVSVLTVLHQDWLNGKEYKCKVSNKALPAPIEKTISKAKGQPREPQVYTLPPSREEMTKNQVSLTCLVKGFYPSDIAVEWESNGQPENNYKTTPPVLDSDGSFFLYSRLTVDKSRWQQGNVFSCSVMHEALHNHYTQKSLSLSPGK
light 2: DIVMTQTPASVEAAVGGTVTIKCQASQTITNYLSWYQQKPGQPPKLLIYKASTLTSGVSSRFKGSGSGTEFTLTISDLESDDAATYYCQNYYYGSSSGYGFVFGGGTEVVVKRTVAAPSVFIFPPSDEQLKSGTASVVCLLNNFYPREAKVQWKVDNALQSGNSQESVTEQDSKDSTYSLSSTLTLSKADYEKHKVYACEVTHQGLSSPVTKSFNRGEC
B2: CD40-001-FEALxCD137-008-FEAR (bispecific antibody, human IgG1, kappa)
heavy 1: B1 heavy 1
light 1: B1 light 1
heavy 2: QSLEESGGRLVTPGTPLTLTCTASGFSLSSYDMSWVRQAPGKGLEYIGYISSSGNTYYASWAKSRFTISKTSTTVDLKITSPTTEDTATYFCAREGDYWDFNLWGPGTLVTVSSASTKGPSVFPLAPSSKSTSGGTAALGCLVKDYFPEPVTVSWNSGALTSGVHTFPAVLQSSGLYSLSSVVTVPSSSLGTQTYICNVNHKPSNTKVDKRVEPKSCDKTHTCPPCPAPEFEGGPSVFLFPPKPKDTLMISRTPEVTCVVVAVSHEDPEVKFNWYVDGVEVHNAKTKPREEQYNSTYRVVSVLTVLHQDWLNGKEYKCKVSNKALPAPIEKTISKAKGQPREPQVYTLPPSREEMTKNQVSLTCLVKGFYPSDIAVEWESNGQPENNYKTTPPVLDSDGSFFLYSRLTVDKSRWQQGNVFSCSVMHEALHNHYTQKSLSLSPGK
light 2: AQVLTQTPSSVSAAVGGTVTINCQASQSISNLLAWYQQKPGQRPRLLIYRASTLASGVPSRFKGSGSGTEFTLTISDLESEDAATYYCAGGFPGLDTGATFGGGTEAVVTRTVAAPSVFIFPPSDEQLKSGTASVVCLLNNFYPREAKVQWKVDNALQSGNSQESVTEQDSKDSTYSLSSTLTLSKADYEKHKVYACEVTHQGLSSPVTKSFNRGEC
B3: CD40-001-FEALxCD137-010-FEAR (bispecific antibody, human IgG1, kappa)
heavy 1: B1 heavy 1
light 1: B1 light 1
heavy 2: QSVEESGGRLVTPGTPLTLTCTVSGFSLSTYAMIWVRQAPGKGLEWIGVVYDNGYISHATWVKGRFTISKTSTTVGLEITSPTTEDTATYFCARSADGSWSTYFNLWGQGTLVTVSSASTKGPSVFPLAPSSKSTSGGTAALGCLVKDYFPEPVTVSWNSGALTSGVHTFPAVLQSSGLYSLSSVVTVPSSSLGTQTYICNVNHKPSNTKVDKRVEPKSCDKTHTCPPCPAPEFEGGPSVFLFPPKPKDTLMISRTPEVTCVVVAVSHEDPEVKFNWYVDGVEVHNAKTKPREEQYNSTYRVVSVLTVLHQDWLNGKEYKCKVSNKALPAPIEKTISKAKGQPREPQVYTLPPSREEMTKNQVSLTCLVKGFYPSDIAVEWESNGQPENNYKTTPPVLDSDGSFFLYSRLTVDKSRWQQGNVFSCSVMHEALHNHYTQKSLSLSPGK
light 2: DIVMTQTPASVEAAVGGTVTIKCQASESISNYLAWYQQKPGQPPKLLIYKASTLASGVSSRFKGSGSGTEFTLTISDLESADAATYYCQTNYCCSSSDNGFAFGGGTEVVVKRTVAAPSVFIFPPSDEQLKSGTASVVCLLNNFYPREAKVQWKVDNALQSGNSQESVTEQDSKDSTYSLSSTLTLSKADYEKHKVYACEVTHQGLSSPVTKSFNRGEC
B4: CD40-001-FEALxCD137-009-FEAR (bispecific antibody, human IgG1, kappa)
heavy 1: B1 heavy 1
light 1: B1 light 1
heavy 2: QSLEESGGRLVTPGTPLTLTCTVSGFSLNDYWMSWVRQAPGKGLEWIGYIDVGGSLYYASWAKGRFTISRTSTTVDLKMTSLTTEDTATYFCARGGLTYGFDLWGPGTLVTVSSASTKGPSVFPLAPSSKSTSGGTAALGCLVKDYFPEPVTVSWNSGALTSGVHTFPAVLQSSGLYSLSSVVTVPSSSLGTQTYICNVNHKPSNTKVDKRVEPKSCDKTHTCPPCPAPEFEGGPSVFLFPPKPKDTLMISRTPEVTCVVVAVSHEDPEVKFNWYVDGVEVHNAKTKPREEQYNSTYRVVSVLTVLHQDWLNGKEYKCKVSNKALPAPIEKTISKAKGQPREPQVYTLPPSREEMTKNQVSLTCLVKGFYPSDIAVEWESNGQPENNYKTTPPVLDSDGSFFLYSRLTVDKSRWQQGNVFSCSVMHEALHNHYTQKSLSLSPGK
light 2: DIVMTQTPASVSEPVGGTVTINCQASEDISSYLAWYQQKPGQRPKRLIYGASDLASGVPSRFSASGSGTEYALTISDLESADAATYYCHYYATISGLGVAFGGGTEVVVKRTVAAPSVFIFPPSDEQLKSGTASVVCLLNNFYPREAKVQWKVDNALQSGNSQESVTEQDSKDSTYSLSSTLTLSKADYEKHKVYACEVTHQGLSSPVTKSFNRGEC
B5: CD40-001-FEALxCD137-007-FEAR (bispecific antibody, human IgG1, kappa)
heavy 1: B1 heavy 1
light 1: B1 light 1
heavy 2: QSLEESGGRLVTPGTPLTLTCTASGFSLSSYDVSWVRQAPGKGLEYIGFIGSDGSAHYATWVKGRFTISKTSTTVDLKITSPTTEDTATYFCARDWNDYWAHDLWGPGTLVTVSSASTKGPSVFPLAPSSKSTSGGTAALGCLVKDYFPEPVTVSWNSGALTSGVHTFPAVLQSSGLYSLSSVVTVPSSSLGTQTYICNVNHKPSNTKVDKRVEPKSCDKTHTCPPCPAPEFEGGPSVFLFPPKPKDTLMISRTPEVTCVVVAVSHEDPEVKFNWYVDGVEVHNAKTKPREEQYNSTYRVVSVLTVLHQDWLNGKEYKCKVSNKALPAPIEKTISKAKGQPREPQVYTLPPSREEMTKNQVSLTCLVKGFYPSDIAVEWESNGQPENNYKTTPPVLDSDGSFFLYSRLTVDKSRWQQGNVFSCSVMHEALHNHYTQKSLSLSPGK
light 2: AQVLTQTTSPVSAAVGGTVTINCQASQIVTSKSALSWYQQKPGQPPRLLIYKASTLASGVPSRFSGSGSGTQFTLTISDLESDDAATYYCAGGYYNSGDLNPFGGGTEVVVKRTVAAPSVFIFPPSDEQLKSGTASVVCLLNNFYPREAKVQWKVDNALQSGNSQESVTEQDSKDSTYSLSSTLTLSKADYEKHKVYACEVTHQGLSSPVTKSFNRGEC
B6: CD40-001-FEALxCD137-006-FEAR (bispecific antibody, human IgG1, kappa)
heavy 1: B1 heavy 1
light 1: B1 light 1
heavy 2: QSVEESGGRLVTPGTPLTLTCTVSGFSLSSYAMSWVRQAPGKGLEWIGIISTSGITYYASWAKGRFTISKTSTMVDLKITSPTTEDTATYFCARLNGFDDYVRYFDFWGLGTLVTVSSASTKGPSVFPLAPSSKSTSGGTAALGCLVKDYFPEPVTVSWNSGALTSGVHTFPAVLQSSGLYSLSSVVTVPSSSLGTQTYICNVNHKPSNTKVDKRVEPKSCDKTHTCPPCPAPEFEGGPSVFLFPPKPKDTLMISRTPEVTCVVVAVSHEDPEVKFNWYVDGVEVHNAKTKPREEQYNSTYRVVSVLTVLHQDWLNGKEYKCKVSNKALPAPIEKTISKAKGQPREPQVYTLPPSREEMTKNQVSLTCLVKGFYPSDIAVEWESNGQPENNYKTTPPVLDSDGSFFLYSRLTVDKSRWQQGNVFSCSVMHEALHNHYTQKSLSLSPGK
light 2: AIELTQTPSSVSAAVGGTVTINCQASESIASNLAWYQQKPGQPPKLLIYAASYLASGVPSRFKGSGSGTEYTLTISGVQSADAATYYCQSAFYVSSSDNAFGGGTEVVVKRTVAAPSVFIFPPSDEQLKSGTASVVCLLNNFYPREAKVQWKVDNALQSGNSQESVTEQDSKDSTYSLSSTLTLSKADYEKHKVYACEVTHQGLSSPVTKSFNRGEC
B7: CD40-001-FEALxCD137-005-FEAR (bispecific antibody, human IgG1, kappa)
heavy 1: B1 heavy 1
light 1: B1 light 1
heavy 2: QSVEESGGRLVTPGTPLTLTCTASGFTISDFHVTWVRQAPGKGLEWIGTIITSASTTAYATWARGRFTISKSSTTVNLKIVSPTTEDTATYFCARSTYTDTSGYYFDFWGQGTLVTVSSASTKGPSVFPLAPSSKSTSGGTAALGCLVKDYFPEPVTVSWNSGALTSGVHTFPAVLQSSGLYSLSSVVTVPSSSLGTQTYICNVNHKPSNTKVDKRVEPKSCDKTHTCPPCPAPEFEGGPSVFLFPPKPKDTLMISRTPEVTCVVVAVSHEDPEVKFNWYVDGVEVHNAKTKPREEQYNSTYRVVSVLTVLHQDWLNGKEYKCKVSNKALPAPIEKTISKAKGQPREPQVYTLPPSREEMTKNQVSLTCLVKGFYPSDIAVEWESNGQPENNYKTTPPVLDSDGSFFLYSRLTVDKSRWQQGNVFSCSVMHEALHNHYTQKSLSLSPGK
light 2: AQVLTQTASPVSAAVGGTVIINCQSSQSIYNGNRLSWYQQKPGQPPKLLIYSASTLASGVSSRFKGSGSGTQFTLAISDVQSDDAATYYCLGSYDCDSADCFAFGGGTEVVVERTVAAPSVFIFPPSDEQLKSGTASVVCLLNNFYPREAKVQWKVDNALQSGNSQESVTEQDSKDSTYSLSSTLTLSKADYEKHKVYACEVTHQGLSSPVTKSFNRGEC

Biological target: Human CD137 (TNR9_Human) (human, UniProt Q07011 24-255)
Experiment: cell-based or functional assay

Chain of Human CD137 (TNR9_Human) (Q07011 24-255): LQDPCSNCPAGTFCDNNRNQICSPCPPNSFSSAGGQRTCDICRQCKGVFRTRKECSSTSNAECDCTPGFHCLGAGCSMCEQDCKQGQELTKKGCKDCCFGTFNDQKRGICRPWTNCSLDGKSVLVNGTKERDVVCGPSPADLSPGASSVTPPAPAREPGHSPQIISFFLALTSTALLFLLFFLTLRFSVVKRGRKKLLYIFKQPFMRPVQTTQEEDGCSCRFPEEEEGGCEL

| Binder | luciferase activity (RLU) of NF-KB/293/GFP-Luc cells transduced with CD137, incubated with K562_CD40 [ng/mL] | EC50 for induction of T-cell proliferation (antigen-specific CD8+ T-cell assay, proliferation index curves) [µg/mL] |
| --- | --- | --- |
| B1 | ~100 |  |
| B2 | ~100 |  |
| B3 | ~100 |  |
| B4 | ~100 | 0.03 |
| B5 | ~100 |  |
| B6 | ~100 |  |
| B7 | ~100 | 0.005 |

Biological target: Human CD40 (human, UniProt P25942 21-277)
Experiment: cell-based or functional assay

Chain of Human CD40 (P25942 21-277): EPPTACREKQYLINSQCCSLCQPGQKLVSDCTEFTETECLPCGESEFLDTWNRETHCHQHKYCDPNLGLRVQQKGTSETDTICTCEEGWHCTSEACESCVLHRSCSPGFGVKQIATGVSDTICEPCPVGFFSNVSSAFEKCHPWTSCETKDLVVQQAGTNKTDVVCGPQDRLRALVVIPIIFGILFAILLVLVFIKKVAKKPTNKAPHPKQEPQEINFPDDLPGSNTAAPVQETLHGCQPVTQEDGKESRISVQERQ

| Binder | luciferase activity (RLU) of NF-KB/293/GFP-Luc cells transduced with CD40, incubated with K562_CD137 [ng/mL] |
| --- | --- |
| B1 | ~100 |
| B2 | ~100 |
| B3 | ~100 |
| B4 | ~100 |
| B5 | ~100 |
| B6 | ~100 |
| B7 | ~100 |
